Data on 1 molecule can be found in patent US20050153872A1, “Methods and compositions for the treatment of infection” (priority 2004, published 2005).

Test [1] deals with vancomycin-sensitive Enterococcus ATCC29212. As to conditions: 3 ug/ml; ATCC 29212 cells.
Test [2] concerns Vancomycin-resistant Enterococcus ATCC 700802.
The test system of test [3] is ATCC 700802 VRE cells. Description: Electron micrographs of bactericidal effects of Ph-EF. Format: cell-based, Enterococcus. As to conditions: Ph-EF 10 ug/ml 0.5 and 2 hr; Ph-SA 10 ug/ml 2 hr; vancomycin 20 ug/ml 2 hr. How it is done:
Electron Microraphs of Bactericidal Effects of Ph-EF Against ATCC 700802 VRE Cells (1% Phosphotungstic Acid, 15.000×).
Bactericidal effects of ph-EF were tested and monitored by electron microscopy. FIG. 16 depicts electron micrographs of (a) untreated cells; (b) and (c) cells treated with Ph-EF (10 ug/ml) for 0.5 hr; (d) untreated cells for 2 hr; (e) cells treated by Ph-SA (10 ug/ml) for 2 hr; (f) cells treated with vancomycin (20 ug/ml) for 2 hr; (g) and (h) cells treated with Ph-EF (10 ug/ml) for 2 hrs.

The test system of test [4] is ATCC 700802 VRE cells. The test can be described thus: Ph-EF protection of ATCC 700802 infected mice. Format: in vivo. As to conditions: for Death distribution in hours 24 h / Death distribution in hours 48 h / Death distribution in hours 72 h / Death distribution in hours 96 h / Death distribution in hours 120 h / Death distribution in hours 144 h / Death distribution in hours 168 h / Number of Death: 5 animals. As for the experimental part:
To assess in vivo effects of Ph-EF, mice were injected with a fatal dosage of ATCC 700802 VRE cells intraperitoneally. […] Mice were inspected every 24 hours for 7-14 days. Dead mice would be counted as positive results.

B1: Ph-EF: Colicin Ia linked to the N-terminus of the E. facaelis pheromone cCF10 (protein)
chain: SDPVARGITNPGAESLGYDSDGHEIMAVASPIYVASNPPRVASPVFHGTPPAWSSFGNKTIWGGNEWVASPDSPTRSDIEKRDKEITAYKNTLSAQQKENENKRTEAGKRLSAAIAAREKDENTLKTLRAGNADAADITRQEFRLLQAELREYGFRTEIAGYDALRLHTESRMLFADADSLRISPREARSLIEQAEKRQKDAQNADKKAADMLAEYERRKGILDTRLSELEKNGGAALAVLDAQQARLLGQQTRNDRAISEARNKLSSVTESLNTARNALTRAEQQLTQQKNTPDGKTIVSPEKFPGRSSTNHSIVVSGDPRFAGTIKITTSAVIDNRANLNYLLSHSGLDYKRNILNDRNPVVTEDVEGDKKIYNAEVALAEWDKLRQRLLDARNKITSAESAVASNSARNNLSARTNEQKHANDALNALLKEKENIRNQLSGINQKIAEEKRKQDELKATKDAINFTTEFLKSVSEKYGAKAEQLAREMAGQAKGKKIRNVEEALKTYEKYRADINKKINAKDRAAIAAALESVKLSDISSNLNRFSRGLGYAGKFTSLADWITEFGKAVARGTENWRPLFVKTETIIAGNAATALVALALVFSILTGSALGIIGYGLLMAVTGALIDESLVEKANKFWGILVTLVFV
modifications: Colicin Ia linked to E. facaelis pheromone cCF10
For the molecule B1, in test [1], the “inhibition of cell growth” value is listed as “inhibited cell growth”. The “inhibition of VRE cell growth” value in test [2] (10 ug/ml, ATCC 700802) is listed as “effectively inhibited VRE cell growth”. Moreover, in test [2] (Ph-EF 70,000 daltons vs vancomycin 1456 daltons), the “bactericidal effect relative to vancomycin on a molar basis” value is listed as “almost one hundred times greater”. Besides, the “morphological alteration in VRE cells (electron micrographs)” value in test [3] is recorded as “substantial morphological alteration”. Moreover, in test [4] (5 mg/kg intravenously), the “Death distribution in hours 24 h” value came to 0, the “Death distribution in hours 48 h” value came to 1, the “Death distribution in hours 72 h” value worked out at 0 and the “Death distribution in hours 96 h” value is on record as 0. Besides, in test [4] (5 mg/kg intravenously), the “Death distribution in hours 120 h” value was determined as 0, the “Death distribution in hours 144 h” value is given as 0, the “Death distribution in hours 168 h” value is on record as 0 and the “Number of Death” value is reported as 1. For the same molecule, in test [4] (10 mg/kg intravenously), the “Death distribution in hours 24 h” value turned out to be 0, the “Death distribution in hours 48 h” value was determined as 0, the “Death distribution in hours 72 h” value amounted to 0 and the “Death distribution in hours 96 h” value is listed as 0. Further, in test [4] (10 mg/kg intravenously), the “Death distribution in hours 120 h” value amounted to 0, the “Death distribution in hours 144 h” value was found to be 0, the “Death distribution in hours 168 h” value is given as 0 and the “Number of Death” value is recorded as 0. The “protection against infection in mice” value in test [4] (ATCC 700802 VRE i.p., agent i.v.) is “effectively prevent Enterococcus infection in mice”.
